Measured values as given in the DeepSol protein solubility set.

Test: soluble on expression in E. coli; label from the status in PepcDB or PDB records

| Sequence | soluble on expression in E. coli |
| --- | --- |
| MGIYQWRDKKKPSGGKRRYYYKVKRKYAAGRPPTYTTLSAAEEEERKPVRARGGSYKIKAKKVAFAVVSNPKTGEARKARILRIVETPAHREYARRGIIVKGAVIDTTLGRAVVTSRPGQEGVVNAVLLEEQGQKQLEHHHHHH | soluble |
| MGKAKVPASKRAPSSPVAKPGPVKTLTRKKNKKKKRFWKSKAREVSKKPASGPGAVVRPPKAPEDFSQNWKALQEWLLKQKSQAPEKPLVISQMGSKKKPKIIQQNKKETSPQVKGEEMPAGKDQEASRGSVPSGSKMDRRAPVPRTKASGTEHNKKGTKERTNGDIVPERGDIEHKKRKAKEAAPAPPTEEDIWFDDVDPADIEAAIGPEAAKIARKQLGQSEGSVSLSLVKEQAFGGLTRALALDCEMVGVGPKGEESMAARVSIVNQYGKCVYDKYVKPTEPVTDYRTAVSGIRPENLKQGEELEVVQKEVAEMLKGRILVGHALHNDLKVLFLDHPKKKIRDTQKYKPFKSQVKSGRPSLRLLSEKILGLQVQQAEHCSIQDAQAAMRLYVMVKKEWESMARDRRPLLTAPDHCSDDA | soluble |
| MGKGGNYVTVAASEVDELRRKNGEMEKAVEEMKKEMLQLWRRTQVAEEAEERLCSQLAELEAESLDQARDYHSRIIFLMNELSRLSSDSASASP | soluble |
| MGKGKNKMHEPKNGRPQRGANGHSSRQNHRRMEMKYDNSEKMKFPVKLAMWDFDHCDPKRCSGKKLERLGLIKSLRVGQKFQGIVVSPNGKGVVCPDDLEIVEQHGASVVECSWARLEEVPFNKIGGKHERLLPYLVAANQVNYGRPWRLNCVEALAACFAIVGRMDWASELLSHFSWGMGFLELNKELLEIYQQCTDCDSVKRAEEEWLQKLEKETQERKSRAKEEDIWMMGNINRRGNGSQSDTSESEENSEQSDLEGNNQCIEYDSLGNAIRIDNMKSREAQSEESEDEESGSKENGEPLSYDPLGNLIR | not soluble |
| MGKKAHGGKMKPEIDENGTLLVPPPRTIANQDHFHRLNYLYQISAYQTRARQKARTDAHTPLARNYIKSMDLISKKTKTSLLPTIKRTICKKCHRLLWTPKKLEITSDGALSVMCGCGTVKRFNIGADPNYRTYSEREGNLLNS | soluble |
| MGKKKNSNKSAAAAPAVKHNDRWSSIELGEAKSAAVSHYKEPSKEPKFVHPAKLEKVKRIHDGLNIDRVLSHGPVPKQNGGTKRKHVEVTTQKLENKKPKVEVKKEDEKSKNKKMKNQNKHTALVQNETSTRSTYFVEEPDNENKVTLISNGREIAFKKTEVVESDDEQMIGLDSDEELEDEDETDIDEDEMMIDPKDIERYINFESVEDEEDMEDEEIEDEEFEDEEFEDEEEEADEQEEEEEDVSDEESVVSEMDADSDDEGFIAGKDREAHVISKDKFTRNAPAVDFDKFPFTDEDSVVTSSRAFGFMISPCDVQTFFDKFYQSNVLVVRRKQPTYFGNLFSTARLGELLEKNHLEYGRNINIAQYKNGVRTTLNGQGRAYPQIVKQHLHNMCSVQLVNPQTYDDRIWYLCEVIQEQFGCFVGANTYLTPAGSSGFAPHWDEIDAFLLQVEGRKYWRVWAPESAEEELPLESSDNFTEDDMKGREPVFEGWIEKGDMIYIPRGYIHQARTDSKVHSLHVTVSTGRQWSFANLMEKVVPEAIGVLTDTRHKLRRGLPTGLFDMGGVIDLDYSQEDHFVEKFKMVVDRHMSMLRNLVADQLLESSVDSLAKEFMKQALPPRLTEQEKKLSVLGSSTNLLGDDLVDFTARTKVRLIRRHTQRLLMESEDACFISHRINNSRLFEGRPEQIVEYPISGIDAYRVLSNSYPEWRTLYEIFSLRETKTKSRKENLAAIQLLFQIGVLLVKN | not soluble |
| MGKNLLREKKRLIRQKILFLTGENESWMKNPEIVKEVQRLSKQLESDLIADKRPLPSLDPDKLTKEKYQHFLDLGYQVGDIKKALGLGTTTFQNWRKANGIENKINRKQKKEESKLMKFNIHTASLLLPGTFGAEGKECITISKSGLALSGPVVRRLNKPEWIQLYLDESRLALFVIPCKATDEGARSCVNPKSKKKAGYRKSWSGSILEKVAKASKMDIENHRYHVEPESVEGYPTALGFDLTKAVKN | not soluble |
| MGKTKPVLQCTLCGALVDSGNGLPMHEETYAVLRVEAMPRQWRQALENVMAKTIASPPPSAMPGTDPLEAVWFTPWRTNSWQPNTVDCRQVLNGTLDELRVLSQEVAALAATQGFSACVEFV | not soluble |
| MGKTLFEKVWNAHVVTEVKDGPSILYIDKQLIHEVTSPQAFAGIEKRGIGVFRPERTLATPDHNVPTKGQNLPIVEDLSRFQVDKLTENCNKFGVTLYGLGHASQGVVHVVGPETGTTLPGMTIVCGDS | not soluble |
| MGKVILVTGVSRGIGKSIVDVLFSLDKDTVVYGVARSEAPLKKLKEKYGDRFFYVVGDITEDSVLKQLVNAAVKGHGKIDSLVANAGVLEPVQNVNEIDVNAWKKLYDINFFSIVSLVGIALPELKKTNGNVVFVSSDACNMYFSSWGAYGSSKAALNHFAMTLANEERQVKAIAVAPGIVDTDMQVNIRENVGPSSMSAEQLKMFRGLKENNQLLDSSVPATVYAKLALHGIPDGVNGQYLSYNDPALADFMP | soluble |
| MGLHRLIYLSCATDGLSYPDLRDIMAKSEVNNLRDGITGMLCYGNGMFLQTLEGDRQKVSETYARILKDPRHHSAEIVEFKAIEERTFINWSMRLVQLGEMDSDTIRRLRLKYSPAATFQPRSMTAEQCFRFLKELYDMSQGS | soluble |
| MGLKEKLIRKGKYIWELPKETIEGQRVPVILYLSDALFELLEEDALRQAANAATLPGVEKAIYVMPDVHVGYGFPVGGVMATNTETGIISPGSIGYDINCGVRLIATNLKAVDVAPRIKEIMNNMLKNVPAGVGSTSEIKLSKSQMKEVLVKGAGWAVEHGFGFPEDLQHIEGFGALPNADPEKASHEAYERGSDELGTVGSGNHFVEVQAVEQIYEPEIAEKLGIWEGQVMVMVHSGSRGFGHQVCTDYLRVALKVRDKYKIKLPDPQLACMPFNSPEGQAYFKAMNAAANYAFANRQILGFKAANTVRKTLGISWEEFGYRLIYDHAHNIGKVEKHEVDGKKVEVIVHRKGATRAFPPYNPEVPPAYREVGQPVIIPGDMGRASFLLVGQTNSMKMSFGTACHGAGRVMSRRQAKKYVKEVGLEKVIGNLVVVARGKGTIMEEIPQAYKDVTEVVRVIDELGIAKAVARLKPLGTLKG | soluble |
| MGLKKCGLNLSRDNKELKPHGTIDFPCAGYSSCYRDSEDDIIPWHWHPELEILYIKSGNLKLKLPEKTFHLTPGDGFIVNSNVLHYAVAEPLCELHSIVFSPLLITGWEGSVFAEKYIGPLVRCPSFDGCSLNCLFPEPEMFENLFTAAFHALAEDLPGYEFTLREALSKLCYALCLRFGPETGDDCPAPSPDAERLRRMLDYIHCHYSEPLKLSQIAEAADIGERECLRCFSRMIQVSPIQYLLKYRVNQSASLLLREPGKNITAIAGGCGFDSPGNFSRIFKRYYKCSPKEYRSRNKE | soluble |
| MGLLVNGIWQDQWYDTESTGGRFVRHDSQFRHWITPDGSPGPTGHGGFKAEAGRYHLYVSLACPWAHRTLIFRKLKGLEGMIDVSVVHWLMRENGWTFAPGPGVMPDPLFNAEYLYQIYTRADAQYSGRVTVPILWDKQKQTIVNNESSEIIRIFNSAFDGLGAKSGDYYPKALRTQIDALNDRIYHTINNGVYKCGFATTQTAYEEAIAPLFESLDWLEGILQGHQYLTGDEITEADWRLFTTLIRFDVVYVGHFKCNLRRIQDYPNLWRYLRDLYHQPGIAETVNFQHIKGHYYESHLNINPTGIVPMGPALDLSLALEHHHHHH | not soluble |
| MGLSVMIMLMRSVKIKYLNLASLSNDRSADTSAAPHSPLRTRLVHPSLAFCPDVPSGKCRFAKFYGIGREPHRIRGADVLLFEGLKRVR | not soluble |
| MGMIGYFAEIDSEKINQLLESTEKPLMDNIHDTLSGLRRLDIDKRWDFLHFGLTGTSAFDPAKNDPLSRAVLGEHSLEDGIDGFLGLTWNQELAATIDRLESLDRNELRKQFSIKRLNEMEIYPGVTFSEELEGQLFASIMLDMEKLISAYRRMLRQGNHALTVIVG | soluble |
| MGNQCQNGTLGSDYHNRFPREHAVGYVQGDSYLDLKKFDDTWPEVNNFKPTAASILRRGLDPTSINVLGRKTADLREHYIIGRKLGQGQFGTTYLCTEINTGCEYACKTIPKRKLITKEDVEDVRREIQIMHHLSGHKNVVAIKDVYEDGQAVHIVMELCAGGELFDRIQEKGHYSERKAAELIRIIVSIVAMCHSLGVMHRDLKPENFLLLDKDDDLSIKAIDFGLSVFFKPGQAFTELVGSPYYVAPEVLHKRYGPESDVWSAGVILYVLLSGVPPFWAETQQGIFDAVLKGHIDFQSDPWPKISDSAKDLIRKMLSHCPSERLKAHEVLRHPWICENGVATDQALDPSVISRLKQFSAMNKLKKLALRVIAERLSEEEIAGLREMFKAVDTKNRGVITFGELREGLRRFGAEFKDTEIGDIMEAAHNDNNVTIHYEEFIAATLPLNKIEREEHLLAAFTYFDKDGSGYITVDKLQRACGEHNMEDSLLEEIISEVDQNNDGQIDYAEFVAMMQGSNVGLGWRTMESSLNVALRDAPQVH | not soluble |
| MGNSYITKEDNQISATSEQTEDSACLSAMVLTTNLVYPAVLNAAIDLNLFEIIAKATPPGAFMSPSEIASKLPASTQHSDLPNRLDRMLRLLASYSVLTSTTRTIEDGGAERVYGLSMVGKYLVPDESRGYLASFTTFLCYPALLQVWMNFKEAVVDEDIDLFKNVHGVTKYEFMGKDKKMNQIFNKSMVDVCATEMKRMLEIYTGFEGISTLVDVGGGSGRNLELIISKYPLIKGINFDLPQVIENAPPLSGIEHVGGDMFASVPQGDAMILKAVCHNWSDEKCIEFLSNCHKALSPNGKVIIVEFILPEEPNTSEESKLVSTLDNLMFITVGGRERTEKQYEKLSKLSGFSKFQVACRAFNSLGVMEFYK | soluble |
| MGPTQETYTIVRYQSGTFSKQLDEIVTESPITIKLNGEEYVTVVCTPNYIEDMVIGFLISEGIISSYNDVEELWVQKDNGIVHVKSSKVNPLYQTLYNKRYVTSCCGKGRQGFIFVNDAAKAKDLHDIHVKITPEECFYLMNTLQQSSTTFRQTGGVHNTALCDRNKILLSRMDIGRHNALDKIYGHCLRNDISVKGKIIAFSGRISSEILLKVSKIGCEIVLSKSAPTKLALQLAHDLGITVVGFIRNESCNIYTHPHRIDGYQSNN | not soluble |
| MGPYFGKVSEVSSNSQTTYLPESADATQVQEQLGDFTDSESIPAIVVMVSDEPLTQQDITQLNEVVAGLSELDIVSDEVSPAIPSEDGRAVQVFVPLNPSAELTESVEKLSETLTQQTPDYVSTYVTGPAGFTADLSALEHHHHHH | not soluble |
| MGQNIELHESLIRLIPYGEVPLPTVEQVQEHIYSYLNYLSESAIEQDVLFRVLLSTEERETLARAALGLTLEEISDFLRLTVKERLSSNGITIDATVTPMVVEYKTRLLSQMGIELGKPALYSFGGLDLLREWLNRRRKLFTQEARNLQLPQPKGILLEHHHHHH | not soluble |
| MGRGSEFGIFAFTDSVFEITESVGRFELKVMRYSGARGTVIVPYWTENDTATESKDYEGARGELVFENNESEKFIDLFILEESSYEKDVSFKVHIGEPRLAPDDGLAAKIKEVEKKPVQDLTELDRILLLSKPRNGELTTAYVRIRESQEFKATVDKLVAKA | soluble |
| MGRIAVIGAGVAALAAARSLVLAGRRPLLIAPDREVISRGETLSPAAAALLDRLQWADLLDADSALPSEGRFSVWGDATLRQAAQGVGAWHLDRARFERQMRAKLDNDAIECHPIIVTMLVHHCDGVVLELGDGRVVFADAAIDCSGRAAVSSGAAAGRRRTDRLVAVWRVLDLPDDTEPAAATLIEAVPLGWWYMAPLPGDRMMLGLFTDTDLVPPGAAQDGATWTGLAASTVAIAPRLRSLGLDVSAAREPPQVAPAATVTASRLIEGRILRAGDAAAALDPLGANGLATALWSGMAAAEAALTLTEGEPERADAYERDYLQGIAQHLVSQQAMYAAEPRFADAPFWQRRRAVVSSHPQKETLPLEHHHHHH | not soluble |
